This passage reports binding result, Kd and EC50 results from patent publication US20240279321A1 (THERINI BIO, published 2024).

The target of assay [1] is T1, Human fibrin γ377-395 (Human P2 peptide) (human).
T1 construct: In the crystal models, residues 410-421 of chain A are ordered; also called fibrin P2 peptide; fibrin P2 gamma peptide
T1 peptide: Biotin-YSMKKTTMKIIPFNRLTIG
The assay is described as follows: BLI (ForteBio Octet): N-term biotinylated fibrin P2G peptide on SA tip, IgG in solution 100 nM (avid). On the technique in general: BLI is a label-free optical method that tracks binding on a fibre tip over time.

Assay [2] has as its target T1, Human fibrin γ377-395 (Human P2 peptide). The assay is described as follows: BLI (Octet): N-term biotinylated P2G peptide on SA sensor, 100nM Fab in solution.
For assay [3] the target is unchanged. The assay is described as follows: BLI (ForteBio Octet): N-term biotinylated fibrin P2G peptide on SA tip, Fab in solution 100 nM (monovalent) [Cont.].
Assay [4] has the same target. As to the kind of experiment: BLI (ForteBio Octet): N-term biotinylated fibrin P2G peptide on SA tip, IgG in solution 100 nM (avid) [Cont.].
For assay [5] the target is unchanged. As to the kind of experiment: BLI (ForteBio Octet): N-term biotinylated fibrin P2G peptide on SA tip, Fab in solution 100 nM (monovalent).
Assay [6] has the same target. As to the kind of experiment: ELISA (N-P2 ELISA), RFU readout. (In general: ELISA stands for enzyme-linked immunosorbent assay.)
Assay [7] has as its target T2, Rat P2 peptide (rat).
T2 construct: also called Mouse/Rat P2 peptide
T2 peptide: YSMKETTMKIIPFNRLSIG
The assay is described as follows: ELISA of ADI-60143 IgG on NP2 peptide (rat), RFU readout; drawn table, column Rat.

For assay [8], the target named is T1, Human fibrin γ377-395 (Human P2 peptide). The assay is described as follows: ELISA of ADI-60143 IgG on NP2 peptide (human), RFU readout; drawn table, column Human.
For assay [9], the target named is T3, NP2 (Rabbit) (not fully specified (N-terminus)).
T3 construct: 'N-P2' elsewhere in the drawings stands for the N-term biotinylated P2 peptide; also called Rabbit P2 peptide; NP2 Fab (Rabbit) in the legend box of panel A
T3 peptide: YSMKKTTMKIIPLNRLSIG
As to the kind of experiment: ELISA of ADI-60143 IgG on NP2 peptide (rabbit), RFU readout; drawn table, column Rabbit.

Assay [10] concerns the target T4, Human P2 peptide extended (human).
T4 construct: also called human extended P2 peptide
T4 peptide: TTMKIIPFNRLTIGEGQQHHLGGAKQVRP
The assay is described as follows: ELISA of ADI-60143 IgG on Ext NP2 peptide (human), RFU readout; drawn table, column Human.

The next assay addresses T5, Ext NP2 (Rabbit).
T5 construct: also called Rabbit P2 peptide extended
T5 peptide: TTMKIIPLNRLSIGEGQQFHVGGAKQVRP
As to the kind of experiment: ELISA of ADI-60143 IgG on Ext NP2 peptide (rabbit), RFU readout; drawn table, column Rabbit.

For a further assay, the target named is T6, Rat P2 peptide extended (rat).
T6 construct: also called rat extended P2 peptide
T6 peptide: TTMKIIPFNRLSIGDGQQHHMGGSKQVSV
As to the kind of experiment: ELISA of ADI-60143 IgG on Ext NP2 peptide (rat), RFU readout; drawn table, column Rat; the curve has no upper plateau at 500 nM.

The target of assay [11] is T1, Human fibrin γ377-395 (Human P2 peptide). As to the kind of experiment: BLI (Octet RED384), Fab on P2 peptide; on-rate phase 0-300 s, off-rate phase 300-600 s.
The target is the same in assay [12]. The assay is described as follows: BLI (Octet): N-term biotinylated P2G peptide on SA sensor, 100nM Fab in solution; the same panel stands twice in the middle row.
Assay [13] has the same target. As to the kind of experiment: BLI (ForteBio Octet): N-term biotinylated fibrin P2G peptide on SA tip, Fab in solution 100 nM (monovalent).
For assay [14] the target is unchanged. The assay is described as follows: BLI (ForteBio Octet): N-term biotinylated fibrin P2G peptide on SA tip, IgG in solution 100 nM (avid).
For assay [15] the target is unchanged. As to the kind of experiment: ELISA (N-P2 ELISA), RFU readout; C is the duplicate of clone 61278.
For assay [16], the target named is T2, Rat P2 peptide. The assay is described as follows: ELISA of ADI-60143 Fab on NP2 peptide (rat), RFU readout; drawn table, column Rat.
Assay [17] has as its target T1, Human fibrin γ377-395 (Human P2 peptide). The assay is described as follows: ELISA of ADI-60143 Fab on NP2 peptide (human), RFU readout; drawn table, column Human.
The target of assay [18] is T3, NP2 (Rabbit). As to the kind of experiment: ELISA of ADI-60143 Fab on NP2 peptide (rabbit), RFU readout; drawn table, column Rabbit.

Positions count from the first letter of the chain named. Where no end group is shown, it is not given here. The star is where a group is joined. Biotin = O=C1N[C@H]2[C@H](CS[C@H]2CCCCC(=O)*)N1

B1: 60140 (IgG) (antibody, V domains shown)
VH: QVQLVQSGAEVKKPGASVKVSCKASGYTFTSVWIHWVRQAPGQGLEWIGLIDPSDSYTNYNQKFRGRATLTVDTSTSTAYMELSSLRSEDTAVYYCASSRPTGGWGQGTTVTVSS
VL: DIVMTQSPLSLPVTPGEPASISCRSSKSLLHSSGITYLSWYLQKPGQSPQLLIYQMSNLASGVPDRFSGSGSGTDFTLKISRVEAEDVGVYYCAQNLELPLTFGGGTKVEIKR
Take B1: the binding result in assay [1] is listed as “binds”.

B2: 56666 (parent) (Fab) (Fab, V domains shown)
VH: B1 VH with V32Y, I48M, A68V, L70M, R100D
VL: B1 VL
notes: also called ADI-56666; clone 56666 Fab
Broadly, the Kd is the free concentration of one partner at which half of the binding sites on the other are occupied at equilibrium, for simple one-to-one binding. A low value points to higher affinity. As for B2, the Kd in assay [2] stood at 1300 nM.

B3: 61273 (Fab) (Fab, V domains shown)
VH: B1 VH with V32T, I48M, A68V, L70M, R100K
VL: B1 VL with L38I
notes: also called ADI-61273; clone 61273 Fab
B3: in assay [3], the binding result is given as “binds”.

B4: 56657 (parent) (Fab) (Fab, V domains shown)
VH: B1 VH with V32Y, R100D
VL: B1 VL
notes: also called ADI-56657; clone 56657 Fab
Consider B4, for which, in assay [2], the Kd amounted to 264 nM.

B5: 60183 (Fab) (Fab, V domains shown)
VH: B1 VH with V32T, I48M, A68V, L70M, R100K
VL: B1 VL
notes: also called ADI-60183; clone 60183 Fab
Take B5: in [3], the binding result was “binds”.

B6: 61273 (IgG) (antibody, V domains shown)
VH: B1 VH with V32T, I48M, A68V, L70M, R100K
VL: B1 VL with L38I
notes: also called ADI-61273; clone 61273 IgG
Regarding B6, in assay [4], the binding result is given as “binds”.

B7: 60140 (Fab) (Fab, V domains shown)
VH: B1 VH
VL: B1 VL
Consider B7, for which the binding result in [5] is listed as “binds”.

B8: 61285 (Fab) (Fab, V domains shown)
VH: B1 VH with V32S, I48M, A68V, L70M, R100D, T102H
VL: B1 VL with N96S
For B8, the binding result in assay [5] is listed as “binds”.

B9: antibody clone 60143 (full length ADI-60143 IgG) (antibody, V domains shown)
VH: B1 VH with V32T, R100K
VL: B1 VL
In general, EC50 refers to the concentration needed to bring the measured effect to its halfway point. A low value points to a more potent agent. In the case of B9, the EC50 in assay [6] was determined as 0.08 nM; with Rat P2 peptide [7] it was 0.094 nM; in assay [8], 0.11 nM; with NP2 (Rabbit) [9], 0.082 nM; in assay [10] it was 7.25 nM; with Ext NP2 (Rabbit), 5.97 nM. In the assay with Rat P2 peptide extended, this molecule gave a half-maximal effective concentration (EC50) of 139 nM.

B10: 61255 (IgG) (antibody, V domains shown)
VH: B1 VH with V32Y, R100D, P101A
VL: B1 VL with I35H, S48P, N96A
notes: also called clone 61255 IgG
On to B10, for which the binding result in assay [4] is on record as “binds”.

B11: 60183 (IgG) (antibody, V domains shown)
VH: B1 VH with V32T, I48M, A68V, L70M, R100K
VL: B1 VL
notes: also called ADI-60183; clone 60183 IgG
B11: the binding result in [4] is on record as “binds”.

B12: Fab of antibody clone 61278 (ADI-61278 Fab) (Fab, V domains shown, not shown: a dimerising Fc or GST)
VH: B1 VH with V32Y, I48M, A68V, L70M, R100D, P101A
VL: B1 VL with N96A
notes: The crystal model holds chain H residues 1-126 and 133-214 and chain L residues 1-213; also called Fab ADI61278
In the case of B12, the Kd amounted to 104 nM in assay [11] and 38 nM in assay [12].

B13: ADI-61283 (Fab) (Fab, V domains shown)
VH: B1 VH with V32A, I48M, A68V, L70M, R100D, T102Y
VL: B1 VL with L59K, N96S
B13: in [13], the binding result is “binds”.

B14: 61275 (IgG) (antibody, V domains shown)
VH: B1 VH with V32S, I48M, A68V, L70M, R100A
VL: B1 VL with N96A
B14: the binding result in assay [1] is reported as “binds”.

B15: ADI-61283 (IgG) (antibody, V domains shown)
VH: B1 VH with V32A, I48M, A68V, L70M, R100D, T102Y
VL: B1 VL with L59K, N96S
For the molecule B15, the binding result in [14] is reported as “binds”.

B16: antibody clone 61278 (ADI-61278 IgG) (antibody, V domains shown)
VH: B1 VH with V32Y, I48M, A68V, L70M, R100D, P101A
VL: B1 VL with N96A
Turning to B16, the EC50 in assay [6] was found to be 0.13 nM; in assay [15] it was 0.11 nM.

B17: 61275 (Fab) (Fab, V domains shown)
VH: B1 VH with V32S, I48M, A68V, L70M, R100A
VL: B1 VL with N96A
As for B17, the binding result in assay [5] was “binds”.

B18: Fab of antibody clone 60143 (ADI-60143 Fab) (Fab, V domains shown)
VH: B1 VH with V32T, R100K
VL: B1 VL
notes: The crystal model holds chain H residues 1-127 and 134-214 and chain L residues 1-213; not shown: The papain cleavage limit is not stat
Turning to B18, the values for the EC50 (with Rat P2 peptide [16]; in assay [17]; with NP2 (Rabbit) [18]) were 1.78 nM, 0.34 nM and 0.67 nM, respectively. In addition, the dissociation constant Kd in assay [11] is 70 nM; in assay [12], 23 nM.

B19: 61255 (Fab) (Fab, V domains shown)
VH: B1 VH with V32Y, R100D, P101A
VL: B1 VL with I35H, S48P, N96A
notes: also called clone 61255 Fab
Regarding B19, the binding result in assay [3] is recorded as “binds”.

B20: 61285 (IgG) (antibody, V domains shown)
VH: B1 VH with V32S, I48M, A68V, L70M, R100D, T102H
VL: B1 VL with N96S
With B20, the binding result in [1] was “binds”.
